Here are results for 2 molecules from article PMC4140816 (PLoS ONE, 2014).

The labels stand for the following.
B1: Lyn SH3 domain (domain or fragment)
chain: EQGDIVVALYPYDGIHPDDLSFKKGEKMKVLEEHGEWWKAKSLLTKKEGFIPSNYVAKLNT
B2: VSL12 peptide (peptide)
peptide: VSLARRPLPPLP
modifications: also: biotin (site not given here)
notes: Biotinylated for immobilisation in SPR; source: synthetic peptide (University of Pittsburgh Peptide Synthesis Core)

The target in experiment [1] is B2. Nature of the experiment: SPR; same runs as a1 (biotinylated VSL12 on a streptavidin chip, 25°C, HBS-EP); equilibrium responses against analyte concentration, steady state model. To be noted: both partners purified.
Experiment [2] deals with B2. Put plainly: SPR; Biacore 3000; biotinylated VSL12 immobilised to 80 RU on a streptavidin chip; domain proteins flowed in duplicate at 25°C in HBS-EP (10 mM HEPES pH 7.4, 150 mM NaCl, 3 mM EDTA, 0.05% P20); 180 s association, 300 s dissociation; double referenced; kinetic fit, 1:1 Langmuir model. To be noted: both partners purified.
The target in another experiment is Fyn-YEEI (human, phosphotyrosine in the C-terminal tail (pTyr-Glu-Glu-Ile-Pro)). Put plainly: cell-based or functional assay.
Another experiment concerns the target Lyn-YEEI (human, phosphotyrosine in the C-terminal tail (pTyr-Glu-Glu-Ile-Pro)). Nature of the experiment: cell-based or functional assay.
For experiment [3], the target named is T1, c-Src SH3 domain (human, UniProt P12931-1 81-142).
T1 construct: human c-Src, SH3 domain, residues 81-142; Cloned into pET21a through NdeI and XhoI; source: E. coli Rosetta 2(DE3)pLysS, purified (anion exchange, IMAC, SEC)
Nature of the experiment: SPR; same runs as a1 (biotinylated VSL12 on a streptavidin chip, 25°C, HBS-EP); equilibrium responses against analyte concentration, steady state model. To be noted: both partners purified.

Experiment [4] concerns the target T1, c-Src SH3 domain. Put plainly: SPR; Biacore 3000; biotinylated VSL12 immobilised to 80 RU on a streptavidin chip; domain proteins flowed in duplicate at 25°C in HBS-EP (10 mM HEPES pH 7.4, 150 mM NaCl, 3 mM EDTA, 0.05% P20); 180 s association, 300 s dissociation; double referenced; kinetic fit, 1:1 Langmuir model. As to conditions: both partners purified.

Ends that are not written are not given here.

As for B1, the affinity with VSL12 peptide [1], expressed as Kd, was 562 nM. Also, in the experiment with VSL12 peptide [2], the Kd stood at 647 nM, the koff is 0.137 s⁻¹ and the kon is 212000 M⁻¹ s⁻¹.
Regarding B2, the results for the “Kact: VSL12 concentration at half-maximal activation of kinase activity (ADP Quest kinetic kinase assay, VSL12 0.1 to 300 µM, basal rate subtracted)” value in the experiment with Fyn-YEEI and in the experiment with Lyn-YEEI were 24.9 µM and 4.03 µM, respectively. Moreover, the Kd with c-Src SH3 domain [3] was found to be 4000 nM; with c-Src SH3 domain [4] it was 3420 nM.
